The results in this text go back to publication PMC12412624, “Engineered Cas12j‐8 is a Versatile Platform for Multiplexed Genome Modulation in Mammalian Cells”.

Numbering of substitutions follows the chain as printed.

What all share (conditions): HEK293T cells; panel 1c (compare within a panel only); scale: mean GFP / mean GFP of wild type, printed, no background subtraction
Series [1] concerns T1, dCas12j-8 D403R D403R;D369A;E567A;D658A (bacteriophage (metagenome)).
T1 sequence: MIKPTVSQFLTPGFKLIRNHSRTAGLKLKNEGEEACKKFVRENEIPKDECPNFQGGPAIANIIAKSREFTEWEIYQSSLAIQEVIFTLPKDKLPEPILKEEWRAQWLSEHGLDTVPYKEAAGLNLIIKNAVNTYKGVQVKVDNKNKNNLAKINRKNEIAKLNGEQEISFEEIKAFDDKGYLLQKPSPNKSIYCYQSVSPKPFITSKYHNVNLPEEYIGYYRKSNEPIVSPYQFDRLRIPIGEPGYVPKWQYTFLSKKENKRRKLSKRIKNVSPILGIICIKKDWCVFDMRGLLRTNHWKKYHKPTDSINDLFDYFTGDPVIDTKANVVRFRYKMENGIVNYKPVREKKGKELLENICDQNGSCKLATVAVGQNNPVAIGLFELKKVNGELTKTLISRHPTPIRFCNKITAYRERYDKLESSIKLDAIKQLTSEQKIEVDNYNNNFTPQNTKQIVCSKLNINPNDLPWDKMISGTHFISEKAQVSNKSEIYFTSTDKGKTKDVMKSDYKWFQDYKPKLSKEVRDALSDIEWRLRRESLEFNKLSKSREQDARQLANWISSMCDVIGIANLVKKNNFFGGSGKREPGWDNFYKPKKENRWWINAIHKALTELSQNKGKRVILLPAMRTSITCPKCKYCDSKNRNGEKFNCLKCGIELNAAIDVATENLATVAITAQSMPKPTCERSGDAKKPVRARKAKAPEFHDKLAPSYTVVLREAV

Series [2] relates to T2, dCas12j-8 E242R E242R;D369A;E567A;D658A (bacteriophage (metagenome)).
T2 sequence: T1 sequence with E242R, R403D

The test system of series [3] is T3, dCas12j-8 E31R E31R;D369A;E567A;D658A (bacteriophage (metagenome)).
T3 sequence: T1 sequence with E31R, R403D

Series [4] relates to T4, dCas12j-8 D234R D234R;D369A;E567A;D658A (bacteriophage (metagenome)).
T4 sequence: T1 sequence with D234R, R403D

Regarding “CUUUCAAGACUAAUAGAUUGCUCCUUACGAGGAGACACUCCCUAUCAGUGAUAGAG / TTNACTCCCTATCAGTGATAGAG / CTCTATCACTGATAGGGAGTNAA [TetO]”, the binding signal in series [1] came out at 0.365; in series [2], 0.683; in series [3], 0.82; in series [4], 0.475.
